Experimental data taken from patent US6025480.

How the values were obtained:
[1] = target: cyclin A-cdk2 (baculovirally coexpressed cyclin A and cdk2-HA)
[2] = target: cyclin E-cdk2 (baculovirally coexpressed cyclin E and cdk2-HA)

**Q.** For “flag-p57 (mouse p57^KIP2 tagged at the N-terminus with the flag epitope)”, which half-maximal inhibition of histone H1 kinase activity [1] is on record?
**A.** The half-maximal inhibition of histone H1 kinase activity was 0.5 nM.

**Q.** What about the half-maximal inhibition of histone H1 kinase activity [2] of the same substance?
**A.** The half-maximal inhibition of histone H1 kinase activity was 0.5 nM.
